The results in this text go back to patent US20260116920A1 (PEPTIDREAM, published 2026).

Where “and” joins values, the source holds several entries; their conditions need not be identical. Equal values may be shown once. Starred links: 1 amine or outer side, 2 acyl side, 3 side chain; linkers in the order of their positions; H or OH if unused. Positions of bridges follow the written chain, without caps; N, C: chain ends. Non-standard residues stand in square brackets, D forms with d. Primed or numbered codes have the meaning given here. No end group written: not given here. *: point of attachment. E(PEG8Me) = (S)-30-amino-27-oxo-2,5,8,11,14,17,20,23-octaoxa-26-azahentriacontane-31-oic acid, COCCOCCOCCOCCOCCOCCOCCOCCNC(=O)CC[C@H](N[*:1])C(=O)[*:2]; Phe(4-OMe)(3) = (S)-2-amino-3-(4-methoxyphenyl)propanoic acid (source code F4OMe), COc1ccc(C[C@H](N[*:1])C(=O)[*:2])cc1; F4aao = (S)-2-amino-3-(4-(carboxymethoxy)phenyl)propanoic acid, O=C([C@H](Cc1ccc(OCC(=O)[*:3])cc1)N[*:1])[*:2]; Phe(4-OMe)″ = (S)-2-amino-3-(4-methoxyphenyl)propanoic acid (F4OMe), COc1ccc(C[C@H](N[*:1])C(=O)[*:2])cc1; Phe(4-OMe) = F4OMe = (S)-2-amino-3-(4-methoxyphenyl)propanoic acid, COc1ccc(C[C@H](N[*:1])C(=O)[*:2])cc1; Ndm = N4,N4-dimethyl-L-asparagine, CN(C)C(=O)C[C@H](N[*:1])C(=O)[*:2]; Trp(1-CH2CO) = O=C([C@H](Cc1cn(CC(=O)[*:3])c2ccccc12)N[*:1])[*:2]; Ala(1-CH2CO2H-4-piperidyl) = N[C@@H](CC1CCN(CC(=O)O)CC1)C(=O)O; Trp(5-Cl) = N[C@@H](Cc1c[nH]c2ccc(Cl)cc12)C(=O)O; Nle(6-morpholino) = N[C@@H](CCCCN1CCOCC1)C(=O)O; Phe(3-COOH) = N[C@@H](Cc1cccc(C(=O)O)c1)C(=O)O; NH(CH2CH2O)8Me = COCCOCCOCCOCCOCCOCCOCCOCCN*; NMePhe(3-Cl) = CN[C@@H](Cc1cccc(Cl)c1)C(=O)O; NMePhe(4-F) = CN[C@@H](Cc1ccc(F)cc1)C(=O)O; 3Pal(6-NH2) = Nc1ccc(C[C@H](N)C(=O)O)cn1; NMeY = CN[C@@H](Cc1ccc(O)cc1)C(=O)O; NMeR = CN[C@@H](CCCNC(=N)N)C(=O)O; NMeF = CN[C@@H](Cc1ccccc1)C(=O)O; 3Pal = N[C@@H](Cc1cccnc1)C(=O)O; 4Pal = N[C@@H](Cc1ccncc1)C(=O)O Some results are limits rather than exact numbers.

To fix the notation:
B1: 894_3151 (peptide)
peptide: {CH2CO}-AV[NMeF]VWNYYIIRRY[NMeY]C
modifications: thioether N-15; not fully specified (C-terminus)
B2: 894_0280 (peptide)
peptide: {CH2CO}-AV[NMePhe(3-Cl)]VWNY[Phe(4-OMe)]IIRRFYC-NH2
modifications: thioether N-15; not fully specified (residue 14); also: linker PEG4c
B3: 894_0392 (peptide)
peptide: {CH2CO}-AV[NMePhe(3-Cl)]VWNY[F4aao]IIRRF[NMeY]C-NH2
modifications: thioether N-15; also: linker PEG4c, place not given here
B4: 894_0255 (peptide)
peptide: {CH2CO}-AV[NMePhe(4-F)]V[Trp(5-Cl)]NY[Phe(4-OMe)]IIRRFYC-NH2
modifications: thioether N-15; not fully specified (residue 14); also: linker PEG4c, place not given here
B5: 894_3168 (peptide)
peptide: {CH2CO}-AV[NMePhe(3-Cl)]V[Trp(1-CH2CO)]NY[F4aao]IIRRF[NMeY]C-NH2
modifications: thioether N-15; also: linker G-de-de-de-ds-ds-KN3, attachment not given here
B6: 894_0254 (peptide)
peptide: {CH2CO}-AV[NMePhe(4-F)]V[Trp(5-Cl)]NYYIIRRFYC-NH2
modifications: thioether N-15; not fully specified (residue 14); also: linker PEG4c, place not given here
B7: 894_3167 (peptide)
peptide: {CH2CO}-AV[NMePhe(3-Cl)]V[Trp(1-CH2CO)]NY[Phe(4-OMe)(3)]IERRF[NMeY]C-NH2
modifications: thioether N-15; also: linker G-de-de-de-ds-ds-KN3, attachment not given here
B8: 894_0289 (peptide)
peptide: {CH2CO}-AV[NMeF]V[Trp(5-Cl)]NY[Phe(4-OMe)]IIRRYYC-NH2
modifications: thioether N-15; not fully specified (residue 14); also: linker PEG4c
B9: 894_0386 (peptide)
peptide: {CH2CO}-AV[NMePhe(3-Cl)]V[Trp(1-CH2CO)]NY[F4aao]II[Ala(1-CH2CO2H-4-piperidyl)]RF[NMeY]C-NH2
modifications: thioether N-15; also: linker PEG4c, place not given here
B10: 894_0281 (peptide)
peptide: {CH2CO}-AV[NMePhe(3-Cl)]VWNY[Phe(4-OMe)]IIKRFYC-NH2
modifications: thioether N-15; not fully specified (residue 14); also: linker PEG4c
B11: 894_0291 (peptide)
peptide: {CH2CO}-AV[NMePhe(3-Cl)]VWNY[Phe(4-OMe)]IIRRYYC-NH2
modifications: thioether N-15; not fully specified (residue 14); also: linker PEG4c
B12: 894_0390 (peptide)
peptide: {CH2CO}-AV[NMePhe(3-Cl)]V[Trp(1-CH2CO)]NY[F4aao]II[Nle(6-morpholino)][Nle(6-morpholino)]F[NMeY]C-NH2
modifications: thioether N-15; also: linker PEG4c, place not given here
B13: 894_3200 (peptide)
peptide: AVFVWNYYIIKRYYC
modifications: 3:MeF,5:MeW,14:MeY; linker G-ds-ds-ds-ds-ds-KN3; ClAc-1/C15 thioether ring; C-term NH2
B14: 894_0317 (peptide)
peptide: {CH2CO}-AV[NMePhe(3-Cl)]VWNY[Phe(4-OMe)″]IIRR[4Pal][NMeY]C-NH2
modifications: thioether N-15; also: linker PEG4c
B15: 894_0391 (peptide)
peptide: {CH2CO}-AV[NMePhe(3-Cl)]V[Trp(1-CH2CO)]NY[Phe(4-OMe)″]IIRRF[NMeY]C-NH2
modifications: thioether N-15; also: linker PEG4c, place not given here
B16: 894_0251 (peptide)
peptide: {CH2CO}-AV[NMeF]V[Trp(5-Cl)]NY[Phe(4-OMe)]IIRRFYC-NH2
modifications: thioether N-15; not fully specified (residue 14); also: linker PEG4c, place not given here
B17: 894_0353 (peptide)
peptide: {CH2CO}-AV[NMePhe(3-Cl)]V[Trp(1-CH2CO)]N[3Pal(6-NH2)][3Pal]IIRE(NH(CH2CH2O)8Me)[Phe(3-COOH)][NMeY]C-NH2
modifications: thioether N-15; also: linker PEG4c
B18: 894_0455 (peptide)
peptide: {CH2CO}-AV[NMePhe(3-Cl)]VWN[3Pal(6-NH2)][F4aao]II[E(PEG8Me)]R[4Pal][NMeY]C-NH2
modifications: thioether N-15; also: linker PEG4c, attachment not given here
B19: 894_0257 (peptide)
peptide: {CH2CO}-AV[NMePhe(4-F)]V[Trp(5-Cl)]NYYII[NMeR][dR]FYC-NH2
modifications: thioether N-15; not fully specified (residue 14); also: linker PEG4c, place not given here
B20: 894_0354 (peptide)
peptide: {CH2CO}-AV[NMePhe(3-Cl)]V[Trp(1-CH2CO)]N[3Pal(6-NH2)][3Pal]IIRE(NH(CH2CH2O)8Me)[4Pal][NMeY]C-NH2
modifications: thioether N-15; also: linker PEG4c
B21: 894_0356 (peptide)
peptide: {CH2CO}-AV[NMePhe(3-Cl)]V[Trp(1-CH2CO)]N[3Pal(6-NH2)][F4aao]IIRE(NH(CH2CH2O)8Me)[4Pal][NMeY]C-NH2
modifications: thioether N-15; also: linker PEG4c
B22: 894_3152 (peptide)
peptide: {CH2CO}-AV[NMeF]VW[Ndm]YYIIRRY[NMeY]C-NH2
modifications: thioether N-15
SMILES: CC[C@H](C)[C@@H]1NC(=O)[C@H](Cc2ccc(O)cc2)NC(=O)[C@H](Cc2ccc(O)cc2)NC(=O)[C@H](CC(=O)N(C)C)NC(=O)[C@H](Cc2c[nH]c3ccccc23)NC(=O)[C@H](C(C)C)NC(=O)[C@H](Cc2ccccc2)N(C)C(=O)[C@H](C(C)C)NC(=O)[C@H](C)NC(=O)CSC[C@@H](C(N)=O)NC(=O)[C@H](Cc2ccc(O)cc2)N(C)C(=O)[C@H](Cc2ccc(O)cc2)NC(=O)[C@H](CCCNC(=N)N)NC(=O)[C@H](CCCNC(=N)N)NC(=O)[C@H]([C@@H](C)CC)NC1=O
B23: 894_0355 (peptide)
peptide: {CH2CO}-AV[NMePhe(3-Cl)]V[Trp(1-CH2CO)]N[3Pal(6-NH2)][F4aao]IIRE(NH(CH2CH2O)8Me)[Phe(3-COOH)][NMeY]C-NH2
modifications: thioether N-15; also: linker PEG4c

For orientation: KD means the equilibrium constant for the complex coming apart. Read a low KD as a tighter complex. One may read the Kd as the equilibrium constant for the complex coming apart. A low value points to higher affinity.

T1 sequence (P02786 89-760 limits assumed): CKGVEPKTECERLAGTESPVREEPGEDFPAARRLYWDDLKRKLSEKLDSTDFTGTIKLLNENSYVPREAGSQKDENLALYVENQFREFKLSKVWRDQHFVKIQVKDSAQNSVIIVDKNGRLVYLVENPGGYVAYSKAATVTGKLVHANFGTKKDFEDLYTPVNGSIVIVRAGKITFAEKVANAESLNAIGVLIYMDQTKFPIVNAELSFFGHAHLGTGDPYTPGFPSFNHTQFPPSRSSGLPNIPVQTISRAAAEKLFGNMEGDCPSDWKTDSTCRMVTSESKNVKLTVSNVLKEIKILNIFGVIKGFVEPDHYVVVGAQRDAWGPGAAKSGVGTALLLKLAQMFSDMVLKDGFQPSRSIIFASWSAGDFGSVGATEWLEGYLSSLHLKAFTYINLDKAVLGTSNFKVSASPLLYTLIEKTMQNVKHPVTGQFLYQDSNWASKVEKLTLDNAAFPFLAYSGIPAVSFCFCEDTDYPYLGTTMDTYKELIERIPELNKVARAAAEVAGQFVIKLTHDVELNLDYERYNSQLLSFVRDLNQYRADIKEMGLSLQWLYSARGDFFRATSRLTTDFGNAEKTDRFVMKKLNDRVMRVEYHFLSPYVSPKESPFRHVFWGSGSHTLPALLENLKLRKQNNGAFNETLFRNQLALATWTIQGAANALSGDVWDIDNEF

One assay concerns the target T1, human transferrin receptor (hTfR) (human, UniProt P02786 89-760).
T1 construct: used as 0.5 uM hTfR dimer solution, immobilised on an NTA sensor chip (Ni capture plus EDC/NHS coupling); also called human TfR; TfR1
In words: SPR; ratio to 894_3151. Background: SPR reads the build-up and loss of mass on a sensor chip optically.
As for B1, the “KD (Each Peptide)/KD (894_3151)” value was 1 and 1.4.

In a further assay the target is T1, human transferrin receptor (hTfR). In words: SPR; A = KD <1 nM. Here is the method: (§1) NTA sensor chip (Global Life Sciences Technologies Japan K.K.) was inserted into BiacoreT200 (Global Life Sciences Technologies Japan K.K.), then the priming operation was performed three times by using running buffer containing: 10 mM HEPES pH 8.0 (Nacalai Tesque, Inc.), 150 mM NaCl (Nacalai Tesque, Inc.), 0.05% Tween 20 (Nacalai Tesque, Inc.), 0.1% BSA (SIGMA-ALDRICH) and 1.0% DMSO (FUJIFILM Wako Pure Chemical Corporation), and equilibrated at a flow rate of 30 μL/min. 350 mM EDTA solution was reacted at a flow rate of 10 μL/min for 60 seconds, 0.5 mM […] solution (Kishida Chemical Co., Ltd.) was reacted at a flow rate of 10 μL/min for 60 seconds, and then the NTA sensor chip was washed with 3 mM EDTA solution (Nacalai Tesque, Inc.) at a flow rate of 10 μL/min for 60 seconds. After mixing 50 μL each of 60 mM EDC solution (Global Life Science Technologies Japan K.K.) and 650 mM NHS solution (Global Life Science Technologies Japan K.K.), the reaction was carried out at a flow rate of 10 μL/min for 420 seconds. 150 μL of 0.5 μM hTfR dimer solution was prepared by dilution with running buffer and reacted at a flow rate of 10 μL/min for 300 seconds to immobilize hTfR on the NTA sensor chip. For the human transferrin receptor (hTfR), recombinant hTfR described in Example 2 of WO2018/124121 was used. After immobilization, capping was performed by reacting with 1.0 M ethanolamine solution (Global Life Sciences Technologies Japan K.K.) at a flow rate of 10 μL/min for 420 seconds. Peptide lysate prepared in DMSO solution to 10 mM was diluted with running buffer to be a final concentration of 10 μM peptide lysate, then peptide solutions of 100 nM, 50 nM, 25 nM, 10 nM, and 5 nM were prepared. Using the above samples, the kinetics of the peptide against hTfR was obtained by SPR measurement.
(§2) The kinetic evaluation model was single-cycle kinetics, and curve fitting was performed using Biacore T200 Evaluation Software Version 3.0 (Global Life Science Technologies Japan K.K.). The binding of the peptide to hTfR was evaluated by performing curve fitting on the obtained sensorgram by least squares method and obtaining the KD value.
As to B2, the equilibrium dissociation constant (KD) was less than 1 nM.

Consider B3, for which the KD is less than 1 nM.

B4 gave a dissociation constant (KD) of less than 1 nM.

B5 had a dissociation constant (KD) of less than 1 nM.

The molecule B6 registered an equilibrium dissociation constant (KD) of less than 1 nM.

In the case of B7, the dissociation constant (KD) was less than 1 nM.

Regarding B1, the KD was less than 1 nM.

With B8, the KD was less than 1 nM.

In the case of B9, the binding result is “binds”.

Consider B10, for which the KD was less than 1 nM.

Take B11: the KD is less than 1 nM.

For B12, the binding result is “binds”.

Take B13: the binding result was “binds”.

For B14, the KD is less than 1 nM.

The molecule B15 displayed a KD of less than 1 nM.

The molecule B16 yielded a KD of less than 1 nM.

A further assay shares this target. In words: SPR; C = KD 100 nM-1 uM. On the procedure:
as §1, §2
Take B17: the KD lay in the range of 100 to 1000 nM.

As for B18, the KD lay within 100 to 1000 nM.

On to B19, for which the KD fell in the range of 100 to 1000 nM.

Molecule B20 had a dissociation constant KD of 100 to 1000 nM.

The molecule B21 registered a KD of 100 to 1000 nM.

As for B22, the KD fell in the range of 100 to 1000 nM.

The molecule B23 yielded a KD of 100 to 1000 nM.

The target is the same in a further assay. The assay is described as follows: SPR, hTfR immobilised, single-cycle kinetics. On the procedure:
NTA sensor chip (Global Life Sciences Technologies Japan K.K.) was inserted into BiacoreT200 (Global Life Sciences Technologies Japan K.K.), then the priming operation was performed three times by using running buffer containing: 10 mM HEPES pH 8.0 (Nacalai Tesque, Inc.), 150 mM NaCl (Nacalai Tesque, Inc.), 0.05% Tween 20 (Nacalai Tesque, Inc.), 0.1% BSA (SIGMA-ALDRICH) and 1.0% DMSO (FUJIFILM Wako Pure Chemical Corporation), and equilibrated at a flow rate of 30 μL/min. 350 mM EDTA solution was reacted at a flow rate of 10 μL/min for 60 seconds, 0.5 mM […] solution (Kishida Chemical Co., Ltd.) was reacted at a flow rate of 10 μL/min for 60 seconds, and then the NTA sensor chip was washed with 3 mM EDTA solution (Nacalai Tesque, Inc.) at a flow rate of 10 μL/min for 60 seconds. After mixing 50 μL each of 60 mM EDC solution (Global Life Science Technologies Japan K.K.) and 650 mM NHS solution (Global Life Science Technologies Japan K.K.), the reaction was carried out at a flow rate of 10 μL/min for 420 seconds. […]
as §2
Regarding B1, the dissociation constant (Kd) is 1.3 nM and 1.8 nM.
